According to patent US20180273595A1 (REGENTS OF THE UNIVERSITY OF MICHIGAN, published 2018):
*1 amine or outer side, *2 acyl side, *3 side chain or, on linkers, in order; H or OH if unused. Primed or numbered codes have the meaning given here. Where no end group is shown, it is not given here. [ ]: non-standard residue; d: D form. Y(Me) = COc1ccc(C[C@H](N[*:1])C(=O)[*:2])cc1; Pip′ = 4-methylpiperazine; βAla = NCCC(=O)O

How the values were obtained:
[1] = biological target: T1, recombinant His-tagged full-length ERG (UniProt P11308 1-479, biotinylated with NHS-PEG4 biotin for the OctetRED assays); test: OctetRED; Kd table of synthetic peptides on ERG
T1 construct: mature; Baculovirus expression in SF9 cells, Ni-NTA purified; also called wild-type ERG; wtERG; not shown: His tag
T1 sequence (looked up): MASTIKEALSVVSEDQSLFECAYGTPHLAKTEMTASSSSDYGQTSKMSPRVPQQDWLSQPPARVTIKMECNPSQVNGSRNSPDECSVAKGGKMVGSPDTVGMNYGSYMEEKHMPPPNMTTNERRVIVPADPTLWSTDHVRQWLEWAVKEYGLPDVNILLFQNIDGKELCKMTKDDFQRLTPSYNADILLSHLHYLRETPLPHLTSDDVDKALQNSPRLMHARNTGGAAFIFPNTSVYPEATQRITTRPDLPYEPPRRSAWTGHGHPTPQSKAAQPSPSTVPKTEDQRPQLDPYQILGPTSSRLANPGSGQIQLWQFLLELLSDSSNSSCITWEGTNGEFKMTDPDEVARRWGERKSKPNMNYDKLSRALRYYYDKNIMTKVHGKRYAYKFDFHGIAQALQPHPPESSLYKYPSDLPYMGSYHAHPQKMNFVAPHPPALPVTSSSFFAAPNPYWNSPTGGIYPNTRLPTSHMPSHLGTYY

[2] = biological target: T1, recombinant His-tagged full-length ERG; test: OctetRED BLI
[3] = biological target: T1, recombinant His-tagged full-length ERG; test: Kd table of synthetic peptides on ERG; assay not given
[4] = biological target: T1, recombinant His-tagged full-length ERG; test: OctetRED biolayer interferometry, biotinylated ERG on streptavidin sensors, peptide in solution
Protocol: (§1) The interaction coefficients between ERG and synthetic peptides or peptidomimetics were determined by biolayer interferometry technology using the Octet Red system (ForteBio). Purified ERG and GUS proteins were biotinylated by EZLink NHS-PEG4 Biotinylation Kit (Thermo Scientific) following the manufacturer's protocol and any unincorporated biotin was removed from the reactions with Zeba 2 ml desalt columns (Thermo). Biotinylated proteins (500 μg/ml) were then incubated with super streptavidin biosensors in binding buffer (20 mM HEPES pH 7.4, 150 mM NaCl), blocked with 10 μg/ml biocytin and washed three times in binding buffer. Peptides were serially diluted in binding buffer, mixed with the protein-coupled biosensors and peptidomimetic:protein association/dissociation was monitored for 10 min at 25° C. Nonspecific binding from the signal obtained from peptidomimetic:GUS interactions was subtracted from that of peptidomimetic:ERG interactions and baseline signal drift was controlled by monitoring immobilized ERG without peptide. Octet Red analysis software was used to analyze the data.

[5] = biological target: T1, recombinant His-tagged full-length ERG; test: OctetRED BLI, biotinylated ERG on streptavidin sensors
Protocol: as §1

[6] = biological target: T1, recombinant His-tagged full-length ERG; test: Kd table of synthetic peptides on ERG; assay not given; remark: listed apart in the source
[7] = biological target: T1, recombinant His-tagged full-length ERG; test: as above; remark: listed apart in the source
Protocol: as §1

[8] = biological target: T1, recombinant His-tagged full-length ERG; test: as above; remark: listed apart in the source
Protocol: as §1

[9] = biological target: T2, TMPRSS2:ERG gene fusion product, endogenous in VCaP cells (UniProt P11308 33-479, limits assumed); test: pull-down of VCaP lysate with biotinylated peptide, ERG immunoblot
T2 construct: In cell lysates, in cells or in xenograft tumors; also called endogenous ERG; VCaP ERG
T2 sequence (looked up): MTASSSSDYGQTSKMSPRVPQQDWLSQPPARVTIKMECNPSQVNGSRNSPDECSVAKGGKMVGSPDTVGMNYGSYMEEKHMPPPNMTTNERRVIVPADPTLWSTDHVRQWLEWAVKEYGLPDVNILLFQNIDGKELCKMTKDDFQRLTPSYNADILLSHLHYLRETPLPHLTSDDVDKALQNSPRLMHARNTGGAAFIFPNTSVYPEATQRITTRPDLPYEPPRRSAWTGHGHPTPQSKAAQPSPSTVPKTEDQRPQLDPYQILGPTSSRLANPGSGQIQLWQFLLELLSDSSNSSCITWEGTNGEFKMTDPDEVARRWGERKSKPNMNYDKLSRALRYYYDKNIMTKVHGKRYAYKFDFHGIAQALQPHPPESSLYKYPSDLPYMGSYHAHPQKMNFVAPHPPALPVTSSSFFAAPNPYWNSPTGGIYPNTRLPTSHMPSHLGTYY
Protocol: Approximately 1 mg of soluble VCaP cell lysate prepared in RIPA buffer (Invitrogen) was incubated with varying amounts of biotinylated peptides for 2 hours at 4° C. HaloLink agarose beads (20 μl) were added to the peptide-lysate mixture and incubated for an additional 4 hours. Beads were then pelleted by centrifugation, washed three times in PBS-T and loaded into an SDSPAGE gel followed by Western blot analysis. Total VCaP cell lysate was loaded for positive control.

[10] = biological target: T1, recombinant His-tagged full-length ERG; test: OctetRED BLI, alanine substitution peptides of TAT-EIP1
[11] = biological target: T1, recombinant His-tagged full-length ERG; test: OctetRED biolayer interferometry, steady-state analysis
Protocol: as §1

[12] = biological target: T3, Halo-tagged full-length ERG (UniProt P11308 1-479); test: competitive pull-down: Halo-ERG with purified DNA-PKcs or GST-AR and peptide, HaloLink beads, immunoblot
T3 construct: mature; In vitro transcription/translation in wheat germ lysate; also called Halo-ERG fusion protein; not shown: HaloTag (about 35 kDa), N-terminal
T3 sequence (looked up): T1 sequence (looked up)

Ac-LPPYLF-NH2 (also called Ac-LPPYLF-NH2) [6LF-A]
Kd [1]: > 100 µM

LSFGSLPGGRKKRRQRRRG [TAT-EIP2 cell-permeable peptide]
Kd [2]: 1.11 µM

H-LPPYLF-NH2 (also called H2N-LPPYLF-NH2) [6LF-N]
Kd [1]: 4.88 µM

Ac-PPYLF-NH2 (also called Ac-PPYLF-NH2) [5PF-A]
Kd [1]: 9.44 µM

B1: LPPYLFT with 4-methylpiperazine (Pip) added (peptide)
peptide: LPPYLFT
modifications: not fully specified (N-terminus)
notes: also called more soluble version of EIP1
Kd [3]: 1.7 µM

LSAGSAP (Alanine substitution control) [muEIP2 synthetic peptide LSAGSAP]
binding result [4]: no binding (tested: 20 µM)

LPPYLFT [EIP1 synthetic peptide LPPYLFT]
Kd [5]: 0.6 µM
Kd [6]: 0.972 µM
Kd [7]: 2.8 µM

Ac-LPPWLFT-NH2 (also called Ac-LPPWLFT-NH2) [7LT-4W]
Kd [6]: > 100 µM

Ac-LPPDLFT-NH2 (also called Ac-LPPDLFT-NH2) [7LT-4D]
Kd [6]: > 100 µM

Ac-LPPFLFT-NH2 (also called Ac-LPPFLFT-NH2) [7LT-4F]
Kd [6]: > 100 µM

Ac-LPPHLFT-NH2 (also called Ac-LPPHLFT-NH2) [7LT-4H]
Kd [6]: > 100 µM

Ac-PPYL-NH2 (also called capped 4-mer peptide PPYL) [4PL-A (Ac-PPYL-NH2)]
Kd [7]: 1.4 µM

[Pip′]PPYD-NH2 (also called Pip-PPYD-NH2) [4PL-4D]
Kd [8]: 14.8 µM

[Pip′]PPYF-NH2 (also called Pip-PPYF-NH2) [4PL-4F]
binding result [8]: no binding

[Pip′]PPYA-NH2 (also called Pip-PPYA-NH2) [4PL-4A]
Kd [8]: 7.9 µM

[Pip′]PPFL-NH2 (also called Pip-PPFL-NH2) [4PL-3F]
Kd [8]: 3.9 µM

PPYE (not fully specified) [PPYE peptide (mutation of PPYL to PPYE)]
binding result [3]: no binding

MTFGTLP [synthetic peptide MTFGTLP]
Kd [5]: 4.6 µM

YTFGTLP [synthetic peptide YTFGTLP]
Kd [5]: 3.2 µM

B2: biotinylated muEIP2 peptide (peptide)
peptide: LSAGSAP
modifications: also: biotin, position not given here
notes: also called biotin-muEIP2; mutant EIP2 (muEIP2)
binding result [9]: no binding (tested: 20 µM)

H-PYLFT-NH2 [5PT-N (NH2-PYLFT-NH2)]
Kd [1]: 1.31 µM

B3: PPYL with 4-methylpiperazine (Pip) added (peptide)
peptide: [Pip′]PPYL
modifications: not fully specified
notes: also called more soluble version of 4PL-A
Kd [3]: 3.3 µM

B4: 7-mer LPPYLFT capped at the N-terminus only (Ac-LPPYLFT) (peptide)
peptide: Ac-LPPYLFT-OH
notes: Variant inferred from the sentence on capping
Kd [7]: 2.8 µM

H-PPYL-NH2 (also called H2N-PPYL-NH2) [4PL-N]
Kd [1]: > 100 µM
Kd [7]: 94.2 µM

LPPYLFTGGRKKRRQRRRG (not fully specified, also called FITC-labeled TAT-EIP1) [TAT-EIP1 cell-permeable peptide]
Kd [2]: 0.68 µM

LAPYLFTGGRKKRRQRRRG (also called P^2→A) [TAT-EIP1 with P2 to A substitution]
fold increase in Kd against parental TAT-EIP1 [10]: > 100 fold

LPPALFTGGRKKRRQRRRG (also called Y→A) [TAT-EIP1 with Y to A substitution]
fold increase in Kd against parental TAT-EIP1 [10]: > 100 fold

[Pip′]PP[Y(Me)]L-NH2 (also called Pip-PPY(Me)L-NH2) [4PL-3Y(Me)]
Kd [8]: 15.5 µM

LPPTFLY [scrambled peptide LPPTFLY]
binding result [11]: no binding (tested: 20 µM)

H-PPYLF-NH2 (also called H2N-PPYLF-NH2) [5PF-N]
Kd [1]: 10.2 µM

Ac-PPYLFT-NH2 (also called Ac-PPYLFT-NH2) [6PT-A]
Kd [1]: 3.64 µM

H-PPYLFT-NH2 (also called H2N-PPYLFT-NH2) [6PT-N]
Kd [1]: 11.5 µM

Ac-PYLFT-NH2 (also called Ac-PYLFT-NH2) [5PT-A]
Kd [1]: 5.15 µM

LRFGTLP [synthetic peptide LRFGTLP]
Kd [5]: 7.9 µM

Ac-LPPYL-NH2 (also called Ac-LPPYL-NH2) [5LL-A]
Kd [1]: 12.4 µM

H-LPPYL-NH2 (also called H2N-LPPYL-NH2) [5LL-N]
Kd [1]: 9.6 µM

LSFGSLP [EIP2 synthetic peptide LSFGSLP]
Kd [5]: 1.8 µM

LSFGTFP [synthetic peptide LSFGTFP]
Kd [5]: 9.2 µM

LSFGSFP [synthetic peptide LSFGSFP]
Kd [5]: 12.5 µM

FTFGSLP [synthetic peptide FTFGSLP]
Kd [5]: 3.9 µM

FSFGSLP [synthetic peptide FSFGSLP]
Kd [5]: 2.1 µM

LAFGSLP [synthetic peptide LAFGSLP]
Kd [5]: 6.4 µM

LTFGSLP [synthetic peptide LTFGSLP]
Kd [5]: 2.9 µM

FSASSPA [synthetic peptide FSASSPA]
Kd [5]: 21.1 µM

LPPALFT (Alanine substitution control) [muEIP1 synthetic peptide LPPALFT]
binding result [4]: no binding (tested: 20 µM)
binding result [12]: no binding (tested: 50 µM)

[Pip′][βAla][βAla]PPYL-NH2 (not fully specified, also called Pip-βAβA-PPYL-NH2) [4PL-Pip2]
Kd [3]: 3 µM
